# Results: the MegaScale stability set (Tsuboyama et al. 2023)
# B1: HEEH_KT_rd6_0007 (parent)
# chain: SIEEEIKKAEEAKEKGKTFIHGDFVATTEELLDELLKRLRKKL
# Variants of: B1
# Assay: folding stability dG (cDNA display proteolysis); higher = more stable
# Details: PBS, room temperature
row,Variant,folding stability dG [kcal/mol]
1,SIEEEIKKIEEAKEKGKTFIHGDFVATTEELLDELLKRLRKKL [A9I],1.5
2,SIEEEIKKKEEAKEKGKTFIHGDFVATTEELLDELLKRLRKKL [A9K],0.705
3,SIEEEIKKFEEAKEKGKTFIHGDFVATTEELLDELLKRLRKKL [A9F],0.698
4,SIEEEIKKCEEAKEKGKTFIHGDFVATTEELLDELLKRLRKKL [A9C],1.78
5,SIEEEIKKLEEAKEKGKTFIHGDFVATTEELLDELLKRLRKKL [A9L],1.44
6,SIEEEIKKEEEAKEKGKTFIHGDFVATTEELLDELLKRLRKKL [A9E],0.511
7,SIEEEIKKDEEAKEKGKTFIHGDFVATTEELLDELLKRLRKKL [A9D],0.579
8,SIEEEIKKGEEAKEKGKTFIHGDFVATTEELLDELLKRLRKKL [A9G],0.708
9,SIEEEIKKHEEAKEKGKTFIHGDFVATTEELLDELLKRLRKKL [A9H],0.516
10,SIVEEIKKAEEAKEKGKTFIHGDFVATTEELLDELLKRLRKKL [E3V],1.24
11,SIDEEIKKAEEAKEKGKTFIHGDFVATTEELLDELLKRLRKKL [E3D],1.01
12,SIWEEIKKAEEAKEKGKTFIHGDFVATTEELLDELLKRLRKKL [E3W],1.7
13,SIFEEIKKAEEAKEKGKTFIHGDFVATTEELLDELLKRLRKKL [E3F],1.23
14,SIGEEIKKAEEAKEKGKTFIHGDFVATTEELLDELLKRLRKKL [E3G],0.881
15,SITEEIKKAEEAKEKGKTFIHGDFVATTEELLDELLKRLRKKL [E3T],1.04
16,SISEEIKKAEEAKEKGKTFIHGDFVATTEELLDELLKRLRKKL [E3S],1.07
17,SIMEEIKKAEEAKEKGKTFIHGDFVATTEELLDELLKRLRKKL [E3M],1.45
18,SINEEIKKAEEAKEKGKTFIHGDFVATTEELLDELLKRLRKKL [E3N],0.919
19,SIKEEIKKAEEAKEKGKTFIHGDFVATTEELLDELLKRLRKKL [E3K],1.16
20,SIYEEIKKAEEAKEKGKTFIHGDFVATTEELLDELLKRLRKKL [E3Y],1.28

row,Variant,folding stability dG [kcal/mol]
1,SIHEEIKKAEEAKEKGKTFIHGDFVATTEELLDELLKRLRKKL [E3H],1.12
2,SIPEEIKKAEEAKEKGKTFIHGDFVATTEELLDELLKRLRKKL [E3P],0.866
3,SIQEEIKKAEEAKEKGKTFIHGDFVATTEELLDELLKRLRKKL [E3Q],1.22
4,SIREEIKKAEEAKEKGKTFIHGDFVATTEELLDELLKRLRKKL [E3R],1.2
5,SILEEIKKAEEAKEKGKTFIHGDFVATTEELLDELLKRLRKKL [E3L],1.52
6,SIIEEIKKAEEAKEKGKTFIHGDFVATTEELLDELLKRLRKKL [E3I],1.36
7,SIEEEIKHAEEAKEKGKTFIHGDFVATTEELLDELLKRLRKKL [K8H],0.921
8,SIEEEIKIAEEAKEKGKTFIHGDFVATTEELLDELLKRLRKKL [K8I],0.785
9,SIEEEIKFAEEAKEKGKTFIHGDFVATTEELLDELLKRLRKKL [K8F],0.758
10,SIEEEIKTAEEAKEKGKTFIHGDFVATTEELLDELLKRLRKKL [K8T],0.724
11,SIEEEIKEAEEAKEKGKTFIHGDFVATTEELLDELLKRLRKKL [K8E],0.75
12,SIEEEIKRAEEAKEKGKTFIHGDFVATTEELLDELLKRLRKKL [K8R],1.42
13,SIEEEIKQAEEAKEKGKTFIHGDFVATTEELLDELLKRLRKKL [K8Q],1.22
14,SIEEEIKVAEEAKEKGKTFIHGDFVATTEELLDELLKRLRKKL [K8V],0.672
15,SIEEEIKAAEEAKEKGKTFIHGDFVATTEELLDELLKRLRKKL [K8A],1.21
16,SIEEEIKWAEEAKEKGKTFIHGDFVATTEELLDELLKRLRKKL [K8W],1.02
17,SIEEEIKMAEEAKEKGKTFIHGDFVATTEELLDELLKRLRKKL [K8M],1.26
18,SIEEEIKDAEEAKEKGKTFIHGDFVATTEELLDELLKRLRKKL [K8D],0.721
19,SIEEEIKYAEEAKEKGKTFIHGDFVATTEELLDELLKRLRKKL [K8Y],0.777
20,SIEEEIKSAEEAKEKGKTFIHGDFVATTEELLDELLKRLRKKL [K8S],0.904

row,Variant,folding stability dG [kcal/mol]
1,SIEEEIKLAEEAKEKGKTFIHGDFVATTEELLDELLKRLRKKL [K8L],1.23
2,SIEEEIKGAEEAKEKGKTFIHGDFVATTEELLDELLKRLRKKL [K8G],0.922
3,SIEEEIKNAEEAKEKGKTFIHGDFVATTEELLDELLKRLRKKL [K8N],0.961
4,SIEEEIKPAEEAKEKGKTFIHGDFVATTEELLDELLKRLRKKL [K8P],0.542
5,SIEEETKKAEEAKEKGKTFIHGDFVATTEELLDELLKRLRKKL [I6T],0.576
6,SIEEEVKKAEEAKEKGKTFIHGDFVATTEELLDELLKRLRKKL [I6V],0.729
7,SIEEEKKKAEEAKEKGKTFIHGDFVATTEELLDELLKRLRKKL [I6K],0.651
8,SIEEEGKKAEEAKEKGKTFIHGDFVATTEELLDELLKRLRKKL [I6G],0.684
9,SIEEEDKKAEEAKEKGKTFIHGDFVATTEELLDELLKRLRKKL [I6D],0.648
10,SIEEEMKKAEEAKEKGKTFIHGDFVATTEELLDELLKRLRKKL [I6M],0.782
11,SIEEEEKKAEEAKEKGKTFIHGDFVATTEELLDELLKRLRKKL [I6E],0.593
12,SIEEESKKAEEAKEKGKTFIHGDFVATTEELLDELLKRLRKKL [I6S],0.742
13,SIEEEQKKAEEAKEKGKTFIHGDFVATTEELLDELLKRLRKKL [I6Q],0.793
14,SIEEEYKKAEEAKEKGKTFIHGDFVATTEELLDELLKRLRKKL [I6Y],0.676
15,SIEEEAKKAEEAKEKGKTFIHGDFVATTEELLDELLKRLRKKL [I6A],0.662
16,SIEEEHKKAEEAKEKGKTFIHGDFVATTEELLDELLKRLRKKL [I6H],0.603
17,SIEEEWKKAEEAKEKGKTFIHGDFVATTEELLDELLKRLRKKL [I6W],0.615
18,SIEEEFKKAEEAKEKGKTFIHGDFVATTEELLDELLKRLRKKL [I6F],0.542
19,SIEEELKKAEEAKEKGKTFIHGDFVATTEELLDELLKRLRKKL [I6L],1.04
